Source: paper PMC2721907 (Nature structural & molecular biology, 2009)
Square brackets hold non-standard residues; d marks the D form. Ends that are not written are not given here. F2Pmab = 2-amino-4,4-difluoro-3-methyl-4-phosphobutanoic acid (p-Thr mimetic); pT = C[C@@H](OP(=O)(O)O)[C@H](N)C(=O)O

biological target: Plk1 (Homo sapiens, UniProt P53350); assay: Peptide pull-down of Plk1 from HeLa lysates with bead-immobilized peptides
Sequence (P53350 367-603 limits assumed): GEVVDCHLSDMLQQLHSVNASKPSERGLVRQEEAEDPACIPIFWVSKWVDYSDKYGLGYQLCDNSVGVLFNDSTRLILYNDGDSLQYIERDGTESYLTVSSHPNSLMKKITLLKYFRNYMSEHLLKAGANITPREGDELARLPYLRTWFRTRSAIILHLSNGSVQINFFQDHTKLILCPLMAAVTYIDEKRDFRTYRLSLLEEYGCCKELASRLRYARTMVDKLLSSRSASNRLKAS

Question: Which “Plk1 binding in peptide pull-down (in words)” value does the source give for “PLHS-F2Pmab-A: 6-mer p-T78 mimetic peptide containing 2-amino-4,4-difluoro-3-methyl-4-phosphobutanoic acid (F2Pmab) (PLHS[F2Pmab]A-NH2)” here?
Answer: precipitated Plk1

Question: How did the “Plk1 binding in peptide pull-down (in words)” value turn out when PLHA-Pmab (PLHAT) was run?
Answer: abolished the Plk1 binding

biological target: Plk2 PBD (purified recombinant); assay: ITC
Sequence (Q9NYY3 whole entry): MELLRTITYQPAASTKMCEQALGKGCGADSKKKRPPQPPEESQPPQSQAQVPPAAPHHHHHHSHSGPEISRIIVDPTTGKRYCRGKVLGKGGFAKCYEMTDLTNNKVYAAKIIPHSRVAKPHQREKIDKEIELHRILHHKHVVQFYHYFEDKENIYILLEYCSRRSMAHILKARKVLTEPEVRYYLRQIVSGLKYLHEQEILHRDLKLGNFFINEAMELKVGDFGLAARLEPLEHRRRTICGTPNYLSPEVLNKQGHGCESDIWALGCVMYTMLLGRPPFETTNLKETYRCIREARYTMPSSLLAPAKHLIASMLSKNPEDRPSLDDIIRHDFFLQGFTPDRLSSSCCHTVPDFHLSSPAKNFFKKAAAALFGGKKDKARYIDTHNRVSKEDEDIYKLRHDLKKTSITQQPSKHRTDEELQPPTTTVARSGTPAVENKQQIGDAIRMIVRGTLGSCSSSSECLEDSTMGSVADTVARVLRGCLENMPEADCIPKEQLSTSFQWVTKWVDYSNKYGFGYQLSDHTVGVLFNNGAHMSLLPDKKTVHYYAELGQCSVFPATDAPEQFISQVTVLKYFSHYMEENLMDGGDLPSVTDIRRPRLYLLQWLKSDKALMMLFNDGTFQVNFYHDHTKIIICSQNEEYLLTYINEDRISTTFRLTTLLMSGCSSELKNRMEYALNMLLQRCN

Question: With “MQSpTPL, N-terminally acetylated (peptide)” as the molecule, how does the calorimetric initial heat of interaction read?
Answer: -1.68 kcal/mol

Question: How did the calorimetric initial heat of interaction turn out when “PLQSpT, N-terminally acetylated (peptide)” was run?
Answer: -1.1 kcal/mol

biological target: Plk1 PBD (purified recombinant) (human); assay: ITC

Question: Which dH does the source give for “MQSpTPL, N-terminally acetylated (peptide)” here?
Answer: -10 kcal/mol

Question: “LHSpTA, N-terminally acetylated (peptide)” was tested. Which dH did it give?
Answer: -9.9 kcal/mol

Question: With Ac-PLHSpT (peptide) as the molecule, how does the Kd read?
Answer: 445 nM

Question: Ac-PLHS[pT]A [PLHSpTA, N-terminally acetylated] was tested. Which Kd did it give?
Answer: 262 nM

Question: What about the dH of the same molecule?
Answer: -11.6 kcal/mol

Question: Ac-LHS[pT]AI [LHSpTAI, N-terminally acetylated] was tested. Which Kd did it give?
Answer: 247 nM

Question: What about the dH of the same molecule?
Answer: -11.3 kcal/mol

Question: Ac-LHS[pT] [LHSpT, N-terminally acetylated] was tested. Which Kd did it give?
Answer: 22100 nM

Question: And the dH?
Answer: -6.29 kcal/mol

Question: For Ac-HS[pT]A [HSpTA, N-terminally acetylated], which Kd is on record?
Answer: 19500 nM

Question: What about the dH of the same molecule?
Answer: -3.82 kcal/mol
